Test results as given in paper PMC3967050 (Genes & Development, 2014).
Square brackets hold non-standard residues; d marks the D form. Ends that are not written are not given here. Arg(Me2a) = CN(C)C(=N)NCCC[C@H](N)C(=O)O; Lys(Me3) = C[N+](C)(C)CCCC[C@H](N)C(=O)O; Arg(Me2s) = CN=C(NC)NCCC[C@H](N)C(=O)O; Arg(Me) = CNC(=N)NCCC[C@H](N)C(=O)O

How the values were obtained:
[1] = molecular target: bulky arginine mutations of residues W72, Y98, and F251; assay: ITC
SPIN1_50–262 = SPIN1_50–262 (Homo sapiens, UniProt Q9Y657); assay: ITC of SPIN1_50–262 with synthetic peptides; format: binding; settings: relative to H3 K4me3–R8me2a
Sequence of SPIN1_50–262 (Q9Y657 50-262): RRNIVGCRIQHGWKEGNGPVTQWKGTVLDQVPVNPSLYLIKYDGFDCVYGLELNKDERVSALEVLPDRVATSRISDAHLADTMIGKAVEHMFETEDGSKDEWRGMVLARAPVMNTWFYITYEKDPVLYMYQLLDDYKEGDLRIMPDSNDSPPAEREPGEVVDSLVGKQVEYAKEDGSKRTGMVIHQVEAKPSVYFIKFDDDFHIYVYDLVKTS

[2] = molecular target: Human Spindlin1 50–262 (SPIN1_(50–262)) (human) (UniProt Q9Y657); assay: ITC
Sequence of Human Spindlin1 50–262 (SPIN1_(50–262)) (human) (Q9Y657 50-262): as above

[3] = molecular target: T1, Human Spindlin1 50–262 (SPIN1_(50–262)) (human, UniProt Q9Y657 50-262); assay: thermo-fluor stability assay
T1 sequence (Q9Y657 50-262): as above

[4] = molecular target: T1, Human Spindlin1 50–262 (SPIN1_(50–262)); assay: ITC
SPIN1_(50–262) D184A = SPIN1_(50–262) D184A (human, UniProt Q9Y657 50-262, D184A); assay: ITC
Sequence of SPIN1_(50–262) D184A (Q9Y657 50-262 D184A): as the sequence (Q9Y657 50-262) above, with D135A counted along it

SPIN1_(50–262) E142A = SPIN1_(50–262) E142A (human, UniProt Q9Y657 50-262, E142A); assay: ITC
Sequence of SPIN1_(50–262) E142A (Q9Y657 50-262 E142A): as the sequence (Q9Y657 50-262) above, with E93A counted along it

H3_(1–10)K4me3R8me2a peptide (from UniProt P68431 2-11)
fold drop of affinity against wild-type SPIN1(50–262) [1]: 10 to 40 fold

C[C@H](N)C(=O)N[C@@H](CCCNC(=N)N)C(=O)N[C@H](C(=O)N[C@@H](CCCCN(C)C)C(=O)N[C@@H](CCC(N)=O)C(=O)N[C@H](C(=O)N[C@@H](C)C(=O)N[C@@H](CCCNC(=N)N(C)C)C(=O)N[C@@H](CCCCN)C(=O)N[C@@H](CO)C(=O)O)[C@@H](C)O)[C@@H](C)O [K4me2–R8me2a]
affinity reduction upon loss of one methyl group (SPIN1_50–262): ~10 fold

H3 K4me2–R8me2a peptide
Kd [2]: 510 nM

B1: H3_(1–10)K4me3R8me2s peptide (peptide)
peptide: ART[Lys(Me3)]QTA[Arg(Me2s)]KS
reduction of Tm against H3(1–10)K4me3R8me2a [3]: 2 °C

B2: TCF4_(458–469) peptide (peptide)
peptide: RRKKKCVRYIQG
Kd [4]: 3900 nM

B3: H3_(1–10)K4me3 peptide (peptide)
peptide: ART[Lys(Me3)]QTARKS
Kd [4]: ~147 nM | reduction of Tm against H3(1–10)K4me3R8me2a [3]: 4 °C

B4: H3_(1–10)K4me3R8me1 peptide (peptide)
peptide: ART[Lys(Me3)]QTA[Arg(Me)]KS
Kd [4]: ~139 nM

B5: H3_(1–10)K4me3R8me2a peptide (peptide, UniProt P68431 2-11, looked up)
peptide: ART[Lys(Me3)]QTA[Arg(Me2a)]KS
fold reduction of binding affinity against wild-type SPIN1(50–262) (SPIN1_(50–262) D184A): ~90 fold | fold reduction of binding affinity against wild-type SPIN1(50–262) (SPIN1_(50–262) E142A): ~3 fold | Tm of SPIN1(50–262) with the peptide [3]: 63.5 °C
